In the RNAGym collection of RNA variant scans (doi:10.1093/molbev/msab373) one finds reverse-splicing fitness data, which are given here for 84 variants.

Sequences and labels used below:
B1: Azoarcus group I ribozyme (parent)
chain: GUGCCUUGCGCCGGGAAACCACGCAAGGGAUGGUGUCAAAUUCGGCGAAACCUAAGCGCCCGCCCGGGCGUAUGGCAACGCCGAGCCAAGCUUCGGCGCCUGCGCCGAUGAAGGUGUAGAGACUAGACGGCACCCACCUAAGGCAAACGCUAUGGUGAAGGCAUAGUCCAGGGAGUGGCGAAAGUCACACAAACCGG

In this data set the parent is B1. In words: reverse-splicing fitness (ratio to wild type); higher = more active; in vitro selection; Mg2+ level not given. The method, boiled down: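 An in vitro group I ribozyme library with randomized positions was T7-transcribed and gel-purified. In triplicate, 10 pmol RNA in EPPS pH 7.5 was reacted with 50 pmoles of a 30-nt RNA substrate for 1 h at 37 °C across several added MgCl2 levels (1–48 mM), then stopped with EDTA. Products were reverse transcribed from a substrate-complementary primer, PCR-amplified and sequenced (HiSeq 4000). Fitness is a variant's read proportion after selection over that before, normalised to wild type.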
Consider C82U A111G C150G C169G, for which the reverse-splicing fitness was 0.00675.

C82U A111C A120U C150U U176C: the reverse-splicing fitness stood at 0.00907.

For the variant A111G A120U, the reverse-splicing fitness is 0.785.

For the variant C82U A111G A145U C150G, the reverse-splicing fitness was 0.0379.

For the variant C82U A111G A120G A145C C150U C169G U176C, the reverse-splicing fitness was 0.0111.

C82G A111U A120G A145U C150G C169G U176A: the reverse-splicing fitness is 0.00644.

With A120C C150U U176A, the reverse-splicing fitness came to 0.643.

As for A111C C150U C169U U176A, the reverse-splicing fitness turned out to be 0.0241.

For C82U A111U A120U A145G C150A C169A, the reverse-splicing fitness was 0.00571.

In the case of C82G A111G A120U A145U C169U U176C, the reverse-splicing fitness turned out to be 0.0031.

On to C82G A111G A120G A145C C150A C169G U176A, for which the reverse-splicing fitness was found to be 0.0249.

For C82U A111U A120G C169A, the reverse-splicing fitness came to 0.00883.

A120C A145C C150G C169U: the reverse-splicing fitness came to 0.117.

For the variant C82G A145C C169A U176G, the reverse-splicing fitness is 0.00481.

On to C82U A111C A145C C169A, for which the reverse-splicing fitness is 0.00714.

Turning to A111C A120U C150U C169A U176C, the reverse-splicing fitness amounted to 0.00309.

Consider C82U A111G A120U C150A C169A U176G, for which the reverse-splicing fitness came to 0.00269.

In the case of A111U A120U C169U U176C, the reverse-splicing fitness was found to be 0.0202.

With C82G A111C A145G C169G U176G, the reverse-splicing fitness came to 0.00727.

C82U A111U A120U C150G C169U U176A: the reverse-splicing fitness amounted to 0.00294.

A111C A120G A145G C150A C169G: the reverse-splicing fitness came out at 0.0313.

Regarding C82U A120U C150A U176C, the reverse-splicing fitness came out at 0.0109.

Take C82U A120G A145U C150U C169U U176G: the reverse-splicing fitness stood at 0.00327.

As for C82U A111C A120G C150U U176C, the reverse-splicing fitness was 0.0194.

C82U A111U A120G A145C C150U C169U U176A: the reverse-splicing fitness was 0.0187.

For the variant C82A A111U A120C A145C C169A U176C, the reverse-splicing fitness came out at 0.0175.

Consider A120C A145U C150G C169U, for which the reverse-splicing fitness stood at 0.107.

Regarding A111U A120G C150G C169U U176G, the reverse-splicing fitness turned out to be 0.00577.

Take C82A A111C A120C A145U C150A U176A: the reverse-splicing fitness amounted to 0.0112.

Turning to C82G A111C A120C C150U C169A, the reverse-splicing fitness was determined as 0.0099.

Consider C82A A111C A120C C150A U176A, for which the reverse-splicing fitness was 0.0118.

In the case of C82G A111C A120G A145C C150G, the reverse-splicing fitness stood at 0.00634.

With A111U A120G A145U C150U U176G, the reverse-splicing fitness worked out at 0.0059.

As for C82G A111U A145U C150G C169A U176C, the reverse-splicing fitness is 0.0124.

For the variant C82A A111G A120C A145U C150U C169A U176G, the reverse-splicing fitness amounted to 0.00591.

Consider C82U A145G C150A C169A U176G, for which the reverse-splicing fitness came to 0.00596.

As for A111G A145C C150A U176C, the reverse-splicing fitness came out at 0.128.

Consider C82G A111C A120U A145C C169A U176A, for which the reverse-splicing fitness was 0.0016.

As to A111G A145C C150A C169G U176A, the reverse-splicing fitness came to 0.02.

Regarding C82U A111U A120U A145U C150A U176G, the reverse-splicing fitness stood at 0.00252.

Regarding A111C A120G A145U C150G C169A U176C, the reverse-splicing fitness is 0.0112.

Consider C82A A111G A120C A145U C150U U176C, for which the reverse-splicing fitness worked out at 0.0248.

For C82A A145U C150U C169A U176C, the reverse-splicing fitness turned out to be 0.00936.

Turning to A120U C150U C169G U176A, the reverse-splicing fitness was determined as 0.0257.

C82G A111C A120U A145C C150G C169G U176C: the reverse-splicing fitness is 0.00245.

In the case of C82A A111G A120U C150G C169A U176C, the reverse-splicing fitness worked out at 0.00609.

A111G A120C A145G C150U C169A U176A: the reverse-splicing fitness is 0.016.

Turning to C82U A111C A120U C150G C169A U176C, the reverse-splicing fitness amounted to 0.00467.

With A111U A120C A145C C169U U176C, the reverse-splicing fitness turned out to be 0.0419.

For the variant C82G A111C A120G A145G C150G C169A, the reverse-splicing fitness came to 0.009.

Turning to C82A A111C A120U C150G C169A U176C, the reverse-splicing fitness is 0.00597.

With C82U A111G C150G U176C, the reverse-splicing fitness stood at 0.0178.

Turning to C82U A111C A120C A145U C150G C169U U176A, the reverse-splicing fitness was determined as 0.00839.

Turning to C82A A111C A120C A145C C169G U176G, the reverse-splicing fitness is 0.0074.

Regarding C82U C150A C169U U176A, the reverse-splicing fitness amounted to 0.0169.

As to A120C A145G C150G U176G, the reverse-splicing fitness came out at 0.019.

On to C82A A111G A120C A145U C150A C169A U176G, for which the reverse-splicing fitness was 0.00712.

Take C82U C169U: the reverse-splicing fitness came out at 0.0149.

Take C82A A111G A120G A145U C150U C169G: the reverse-splicing fitness was 0.0104.

For C82G A111C C169U, the reverse-splicing fitness is 0.0148.

Take C82G A111C A120C A145C C150G C169U U176C: the reverse-splicing fitness worked out at 0.0123.

For the variant C82G A111G A120C A145C C150A C169A U176C, the reverse-splicing fitness stood at 0.00849.

Consider C82A A111C A120G C150U C169A, for which the reverse-splicing fitness was determined as 0.00973.

C82G A120C A145G C150A C169A U176A: the reverse-splicing fitness was found to be 0.0227.

C82A A111C A145U C150G C169U U176C: the reverse-splicing fitness came out at 0.0113.

Take C82U A120U A145G C150G C169G U176G: the reverse-splicing fitness was 0.00346.

Regarding A145U C169A, the reverse-splicing fitness worked out at 0.173.

Turning to A120U A145C C150U C169G U176A, the reverse-splicing fitness amounted to 0.0156.

For the variant A111C A120U A145U C150A, the reverse-splicing fitness stood at 0.0636.

Take C82G A120U A145G C169U U176C: the reverse-splicing fitness is 0.00453.

Regarding C82U A120C C150G C169A U176A, the reverse-splicing fitness was 0.0104.

As for C82U A111C A120C A145G C169U, the reverse-splicing fitness came out at 0.0129.

As for C82G A120G A145C C169A U176A, the reverse-splicing fitness was 0.0144.

In the case of A111C A120G A145U C150U U176A, the reverse-splicing fitness stood at 0.0265.

With C82A A111C C150U C169A U176A, the reverse-splicing fitness was determined as 0.0146.

As for A120C A145C C150G, the reverse-splicing fitness is 0.279.

As for C82A A111U A120U A145G C150U C169G U176A, the reverse-splicing fitness came to 0.00984.

With C82G A120C A145U C169G U176C, the reverse-splicing fitness was 0.0138.

In the case of C82U A111C A120U C169U, the reverse-splicing fitness is 0.00529.

Turning to C82U A111C A120C A145C C150A C169G U176C, the reverse-splicing fitness worked out at 0.0151.

For C82G A111G A120U A145C C150U C169A U176C, the reverse-splicing fitness turned out to be 0.00184.

For the variant C82A A111C A120U A145G C150U, the reverse-splicing fitness amounted to 0.0191.

On to A111U A120U C150A C169U U176C, for which the reverse-splicing fitness was 0.0045.

As for C82G A111U A120C A145G C169A U176C, the reverse-splicing fitness was determined as 0.0267.
